Experimental findings from the emibetuzumab library of Makowski et al. (2022) are described below.

B1: VH:VL chains; a variant is named by its letters at X, in order (parent)
chain 1: QVQLVQSGAEVKKPGASVKVSCKASGYTFTDYXMHWVRQAPGQGLEWMGXVNPNXXXTTYNQKFEGRVTMTTDTSTSTAYMELRSLRSDDTAVYYCARXNXLDXWGQGTTVTVSS
chain 2: DIQMTQSPSSLSASVGDRVTITCSVSSSVSSIYLHWYQQKPGKAPKLLIYSTSNLASGVPSRFSGSGSGTDFTLTISSLQPEDFATYYCQVYSGYPLTFGGGTKVEIK

This data set covers variants of B1. Description: yeast display scFab, FACS + sequencing. The essentials: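 For the non-specific binding call, a heavy-chain CDR mutant scFab library on the yeast surface was FACS-sorted and samples from two replicates were deep sequenced. Cells were labelled with anti-Myc and either biotinylated ovalbumin (260 μg/mL in PBSB, 3 h, room temperature) or soluble membrane proteins (130 μg/mL, 20 min on ice), with gates on the top 25% and bottom 10% of binders. With membrane protein and ovalbumin samples pooled, a sequence in ≥3 of 4 positive samples and no negatives was scored positive, and the converse rule scored negatives.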
As for DRAGGAGD, the non-specific binding call is “no binding”.
To VKRRSVGA belongs “binds”.
To YKTGDSVD belongs “no binding”; to VRAGADVV, “no binding”; to VRAGADVY, “no binding”.
To VRAGADVA belongs “no binding”; to VRAGADVD, “no binding”; to YRAGAAVA, “binds”.
As for DRAGDSWD, the non-specific binding call is reported as “no binding”.
To DRAGDSWA belongs “no binding”; to YRAGDAAD, “no binding”; to YMAEGSGA, “binds”.
To YKTGDSWV belongs “no binding”; to YKTRDDAV, “no binding”; to SKTRGAGV, “binds”.
To FKTAGSAV chain 1 R67H belongs “binds”; to VRAGADAV, “no binding”.
Regarding VRAGDDAV, the non-specific binding call was “no binding”.
To DRAGDSGF belongs “no binding”; to DRAGDSGA, “no binding”.
To VRAGDYLV belongs “no binding”; to VKTGGAGA, “no binding”; to VRAEASVV, “binds”.
Under YRAGGFVA stands “binds”; under YRAGGFVV, “binds”.
On to YRAETDGV, for which the non-specific binding call is reported as “no binding”.
To FKTGDAWS belongs “binds”.
To DKTGDDGS belongs “no binding”.
To YRAGGASA belongs “binds”; to VRAGADSV, “no binding”; to VRAGDSSV, “no binding”.
In the case of VRAGDSSA, the non-specific binding call is “no binding”.
To FRAGGAWY belongs “binds”; to FRAGGAWV, “binds”; to FRAGGAWS, “binds”.
Under AKTKSDWV stands “no binding”; under FRAGGSAA, “binds”; under DRAGDDSA, “no binding”.
For YRAETDVA, the non-specific binding call is reported as “no binding”.
To VRAGGDLA belongs “no binding”; to YRAAGDVA, “no binding”; to YRAGDALD, “no binding”.
To VRAGDALV belongs “no binding”.
Under VRAGGDAV stands “no binding”; under VRAGGDAA, “no binding”; under AKTGDSSD, “no binding”.
For SKTKSDVA, the non-specific binding call is “no binding”.
To SKTKSDVV belongs “no binding”.
Take SKTKSDVD: the non-specific binding call was “no binding”.
To VRAGDAGV belongs “no binding”; to VRAGDAGA, “no binding”.
To SKTKSDAV belongs “no binding”; to YRAAGAGS, “binds”; to YRAEGALD, “binds”.
For the variant VRAGGDSF, the non-specific binding call is on record as “no binding”.
Under AKTGNDVA stands “no binding”.
Under YRAGGALS stands “binds”; under DRAGDSVD, “no binding”; under DRAGDDAV, “no binding”.
Under YKTGGSGA stands “binds”; under VRAETDVY, “no binding”; under DRAGDALD, “no binding”.
Take FKRRSVGA: the non-specific binding call was “binds”.
Under VKRRSSLA stands “binds”; under DKTGDAAV, “no binding”; under VRAGGAWV, “binds”.
To YKTGNDVA belongs “no binding”; to DRAGDDGY, “no binding”; to DRAGDDGS, “no binding”.
To DRAGDDGA belongs “no binding”.
Consider DRAGDDGD, for which the non-specific binding call is recorded as “no binding”.
To DRAGDDLA belongs “no binding”.
Under DRAGDDLY stands “no binding”.
To DRAETDVY belongs “no binding”; to FRAGDYLV, “no binding”; to YKTRGAVS, “binds”.
Regarding VRAGGFGA, the non-specific binding call is reported as “binds”.
As to VRAGDDGS, the non-specific binding call was “no binding”.
Turning to VRAGDDGA, the non-specific binding call is on record as “no binding”.
Under VRAGDDGV stands “no binding”; under YRAESSGV, “binds”.
To VKTKGVVD belongs “binds”; to YRAAGSWS, “binds”.
Under DRAGDYLY stands “no binding”; under DRAGDYLV, “no binding”; under VKTGGAVV, “no binding”.
For DKTGDSAD, the non-specific binding call is reported as “no binding”.
To YKTGDDGV belongs “no binding”.
To SKTKSDWA belongs “no binding”; to AKTRDDVA, “no binding”.
On to YKTGGDGV, for which the non-specific binding call is reported as “no binding”.
In the case of VRAGGDWV, the non-specific binding call is reported as “no binding”.
In the case of VRAGADWY, the non-specific binding call is “no binding”.
Turning to YKTRGAGD chain 1 Q43R, the non-specific binding call is given as “no binding”.
Under FKTEGFVS stands “binds”; under FKTKNYVV, “binds”; under FKTKSDAV, “no binding”.
Under YRAGASAV stands “binds”.
To YRAGASAD belongs “binds”; to VRAEGSSV, “no binding”.
Consider YKTGGALY, for which the non-specific binding call is on record as “no binding”.
To VRAGDDSD belongs “no binding”; to YRAAGSGA, “binds”.
On to YRAGASLA, for which the non-specific binding call was “binds”.
To YKTGGASS belongs “binds”; to FRAGGAVD, “binds”.
Under FRAGGAVY stands “binds”.
Under YKTKSDWV stands “no binding”; under DRAGDAVD, “no binding”.
As for DRAGDAVS, the non-specific binding call was “no binding”.
Under VKTGGAWY stands “no binding”.
As for DRAGDAAV, the non-specific binding call is listed as “no binding”.
Under DRAGDAAA stands “no binding”; under FRAGGSGA, “binds”; under YRAGASGA, “binds”.
For YRAGASGD, the non-specific binding call was “binds”.
Under SKTKSSGA stands “no binding”.
With YRAGGDSA, the non-specific binding call was “no binding”.
Under YKTRGSLD stands “binds”.
Under FKTKSAGD stands “no binding”.
To VRAGDSVA belongs “no binding”; to YRAGDSGY, “no binding”; to YKTRGSAD, “binds”.
For YKTRGSAA, the non-specific binding call is “binds”.
On to YKRRSSVF, for which the non-specific binding call is given as “binds”.
Under DKTGNDVV stands “no binding”; under DKTGNDVA, “no binding”.
To YRAGGAWY belongs “binds”; to YKTRSAWS chain 1 M48I, “binds”.
Consider DRAGDDWA, for which the non-specific binding call was “no binding”.
To DRAGDDWV belongs “no binding”.
Under DRAGDDWY stands “no binding”.
As to FRAGGAAV, the non-specific binding call is “binds”.
Under FRAGGAAA stands “binds”; under FKRRSFGS, “binds”; under VRAGADGV, “no binding”.
To FRAEGSVA belongs “binds”; to FKTGGAAV, “binds”.
Under ARAGGAAA stands “binds”; under DRAGDSLV, “no binding”; under DRAGDSLD, “no binding”.
ARAAGDVF: the non-specific binding call is “no binding”.
For ARAETDVY, the non-specific binding call is on record as “no binding”.
Under SRAGDYLV stands “no binding”; under YKTRSAVA, “binds”; under YKTESYWY, “binds”.
To SKTKSSAS belongs “no binding”; to YKTGGAGV, “binds”.
Regarding YRAGGAAF, the non-specific binding call is “binds”.
To YRAEGSSS belongs “binds”; to VRAGGDVF, “no binding”; to FKRRSASV, “binds”.
For the variant VRAGDSLS, the non-specific binding call is recorded as “no binding”.
To VRAGDSLD belongs “no binding”.
YRAGGAGY: the non-specific binding call was “binds”.
To SKRRSVGA belongs “binds”; to FKRRSSGD, “binds”.
Under ARAGDDAV stands “no binding”; under VRAEGSVA, “binds”.
To YRAEGAWS belongs “binds”; to VKTGGDGD, “no binding”; to FKTKDSVV, “binds”.
As to YRAGDSVD, the non-specific binding call is “no binding”.
In the case of DRAGDDVF, the non-specific binding call is listed as “no binding”.
With DRAGDDVY, the non-specific binding call is on record as “no binding”.
In the case of DRAGDDVV, the non-specific binding call is recorded as “no binding”.
Under AKTKSDVA stands “no binding”; under YRAGDAVV, “no binding”; under ARAGDAVA, “no binding”.
With ARAGDAVV, the non-specific binding call was “no binding”.
To YKTRSSAD belongs “binds”.
Under DKTGDDVF stands “no binding”; under DRAGDAGV, “no binding”; under DRAGDAGA, “no binding”.
To DRAGDAGY belongs “no binding”; to DRAGDAGS, “no binding”.
Regarding SKTKSSSA, the non-specific binding call is given as “no binding”.
To AKTKSDGV belongs “no binding”.
Regarding VKTGGDVA, the non-specific binding call was “no binding”.
Under VKTGGDVF stands “no binding”.
Under VKTGGDVY stands “no binding”; under SKTRAFVA, “binds”.
To FKTESAAV belongs “binds”; to FRAGGAGA, “binds”; to FRAGGAGV, “binds”.
In the case of YRAGAASD, the non-specific binding call is “binds”.
To YKTGSSWD belongs “binds”; to DRAGDSSA, “no binding”.
To DRAGDASD belongs “no binding”; to ARAAGDWV, “no binding”; to FRAEGSLD, “binds”.
Under FKTKNYAD stands “binds”; under SKTRGAWD, “binds”; under YRAGGDWY, “binds”.
With VKTGGSLD, the non-specific binding call is reported as “no binding”.
On to YRAGDFGV, for which the non-specific binding call is listed as “no binding”.
In the case of YKTKSDGV, the non-specific binding call is “no binding”.
Under ARAGDYLV stands “no binding”; under FRAGGALS, “binds”.
To YKTRGFGA belongs “binds”; to FRAGDAGV, “binds”.
Under FKTRDFAY stands “binds”.
For the variant DKTKSDWV, the non-specific binding call is “no binding”.
Under YRAGGFGS stands “binds”.
Under YRAGGFGY stands “binds”.
To YRAGGDAD belongs “binds”.
For VRAGAAGS, the non-specific binding call is given as “no binding”.
VRAGAAGV: the non-specific binding call was “binds”.
Under VRAGGSAD stands “binds”; under YRAGDSSS, “no binding”; under YRAGDSSA, “no binding”.
For the variant VRAGAFSV, the non-specific binding call was “no binding”.
Under YRAESAAA stands “binds”; under AKTRDFVA, “binds”.
To SKTKSDGA belongs “no binding”.
For SKTKSDGS, the non-specific binding call is reported as “no binding”.
Consider SKTKSDGV, for which the non-specific binding call is reported as “no binding”.
To YRAGDDVY belongs “no binding”.
Under YRAGDDVA stands “no binding”; under YRAEGYVV, “binds”; under YKTKGSSY, “binds”.
To VRAGDDVD belongs “no binding”.
Consider VRAGDDVF, for which the non-specific binding call is given as “no binding”.
To VRAGDDVA belongs “no binding”.
With YRAGDSWD, the non-specific binding call was “no binding”.
Under DKTKGDWV stands “no binding”; under VKTGGSWA, “no binding”; under VKTGGSWV, “no binding”.
To VRAGDSGY belongs “no binding”; to ARAASAGA, “binds”.
